The source of these data is doi:10.1101/2025.02.19.638559, “The architecture, assembly, and evolution of a complex flagellar motor” (bioRxiv, 2025).

In experiment [1] the target is FlgY_(90–172) (C. jejuni 81-176). As to the kind of experiment: SEC; Superdex 200 Increase 10/300 GL; 20 mM Tris-HCl pH 8.0, 300 mM NaCl.
Experiment [2] addresses FlgY_(15–172), FlgY without the predicted signal peptide (C. jejuni 81-176). Described as above.
Experiment [3] deals with T1, PflA_(16–788)-Strep (C. jejuni 81-176, UniProt Q46092 16-788).
T1 chain: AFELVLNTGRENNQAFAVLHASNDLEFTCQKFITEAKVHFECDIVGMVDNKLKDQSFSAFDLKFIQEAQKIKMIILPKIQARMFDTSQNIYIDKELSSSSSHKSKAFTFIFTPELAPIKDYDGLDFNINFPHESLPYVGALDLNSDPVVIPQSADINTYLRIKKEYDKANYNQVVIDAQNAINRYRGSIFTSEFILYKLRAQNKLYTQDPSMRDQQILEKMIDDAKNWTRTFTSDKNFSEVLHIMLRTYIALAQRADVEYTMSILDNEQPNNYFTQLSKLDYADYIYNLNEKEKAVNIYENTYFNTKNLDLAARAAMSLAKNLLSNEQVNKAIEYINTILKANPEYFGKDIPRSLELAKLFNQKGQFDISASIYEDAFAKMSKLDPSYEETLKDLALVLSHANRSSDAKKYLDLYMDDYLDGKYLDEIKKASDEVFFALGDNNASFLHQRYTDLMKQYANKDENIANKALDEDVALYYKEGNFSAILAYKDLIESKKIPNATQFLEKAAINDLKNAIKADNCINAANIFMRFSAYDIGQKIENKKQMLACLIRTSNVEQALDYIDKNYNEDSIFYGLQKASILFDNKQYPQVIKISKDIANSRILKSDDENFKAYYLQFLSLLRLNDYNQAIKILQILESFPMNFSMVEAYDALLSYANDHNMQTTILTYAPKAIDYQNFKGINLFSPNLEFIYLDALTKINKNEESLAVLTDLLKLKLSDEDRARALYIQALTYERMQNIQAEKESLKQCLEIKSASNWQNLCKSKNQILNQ
Description: MST.

Experiment [4] addresses T2, PflB_(113–820) (C. jejuni 81-176, UniProt A0A6F9L7Y3 113-820).
T2 construct: PflB of C. jejuni 81-176, residues 113-820; 178-820 resolved in the cryo-EM structure; also called PflB_(178–820) (the part built in the model)
T2 sequence: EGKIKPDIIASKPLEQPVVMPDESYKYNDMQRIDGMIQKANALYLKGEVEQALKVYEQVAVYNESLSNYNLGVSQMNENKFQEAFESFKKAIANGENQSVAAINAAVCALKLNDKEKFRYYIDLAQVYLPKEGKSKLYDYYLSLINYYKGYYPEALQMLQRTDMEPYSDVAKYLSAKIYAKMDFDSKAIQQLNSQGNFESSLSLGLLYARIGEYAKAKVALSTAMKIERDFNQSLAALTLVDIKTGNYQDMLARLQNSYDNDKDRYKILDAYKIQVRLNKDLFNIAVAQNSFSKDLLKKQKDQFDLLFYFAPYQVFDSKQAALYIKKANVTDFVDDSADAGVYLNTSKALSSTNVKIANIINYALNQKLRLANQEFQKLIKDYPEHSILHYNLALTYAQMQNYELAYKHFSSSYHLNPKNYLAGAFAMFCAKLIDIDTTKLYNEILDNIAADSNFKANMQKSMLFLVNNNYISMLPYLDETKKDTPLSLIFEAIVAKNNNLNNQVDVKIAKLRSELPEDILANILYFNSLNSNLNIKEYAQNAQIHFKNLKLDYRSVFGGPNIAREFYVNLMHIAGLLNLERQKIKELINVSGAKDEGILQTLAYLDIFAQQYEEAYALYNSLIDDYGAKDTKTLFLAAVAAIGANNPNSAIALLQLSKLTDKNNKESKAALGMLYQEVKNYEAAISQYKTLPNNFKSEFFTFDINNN
Description: cryo-EM structure; single-particle cryo-EM of the purified PflA16-788 and PflB113-820 complex at 0.4 mg/ml; 3.23 Å. The following applies: both partners purified.

As to FlgY_(90–172) (domain or fragment), in experiment [1], the stoichiometry N – broadly, a count of units in the complex or per binding partner – came to 2.

With “FlgY_(15–172), FlgY without the predicted signal peptide (domain or fragment)”, the stoichiometry N in experiment [2] is 2.

B1: FlgY_(15–172), FlgY without the predicted signal peptide (domain or fragment)
chain: VFGAEQDCEQYFEARKAQIELQTREFDEARQSLEAYKASFEALQKERLENLEKKEAEVNATLAKIEELKLENARLVEEQQKILNSINDKTQGRVKEIYSQMKDAAIADVLSQMDAEDASKIMLSLESRKISGVLSKMDPKKASELTLLLKNLDNNASN
As to B1, binding in experiment [3] was characterised by a dissociation constant (Kd) of 3.5 µM.

B2: PflA_(16–788) of the purified PflA_(16–788) and PflB_(113–820) complex (domain or fragment)
chain: AFELVLNTGRENNQAFAVLHASNDLEFTCQKFITEAKVHFECDIVGMVDNKLKDQSFSAFDLKFIQEAQKIKMIILPKIQARMFDTSQNIYIDKELSSSSSHKSKAFTFIFTPELAPIKDYDGLDFNINFPHESLPYVGALDLNSDPVVIPQSADINTYLRIKKEYDKANYNQVVIDAQNAINRYRGSIFTSEFILYKLRAQNKLYTQDPSMRDQQILEKMIDDAKNWTRTFTSDKNFSEVLHIMLRTYIALAQRADVEYTMSILDNEQPNNYFTQLSKLDYADYIYNLNEKEKAVNIYENTYFNTKNLDLAARAAMSLAKNLLSNEQVNKAIEYINTILKANPEYFGKDIPRSLELAKLFNQKGQFDISASIYEDAFAKMSKLDPSYEETLKDLALVLSHANRSSDAKKYLDLYMDDYLDGKYLDEIKKASDEVFFALGDNNASFLHQRYTDLMKQYANKDENIANKALDEDVALYYKEGNFSAILAYKDLIESKKIPNATQFLEKAAINDLKNAIKADNCINAANIFMRFSAYDIGQKIENKKQMLACLIRTSNVEQALDYIDKNYNEDSIFYGLQKASILFDNKQYPQVIKISKDIANSRILKSDDENFKAYYLQFLSLLRLNDYNQAIKILQILESFPMNFSMVEAYDALLSYANDHNMQTTILTYAPKAIDYQNFKGINLFSPNLEFIYLDALTKINKNEESLAVLTDLLKLKLSDEDRARALYIQALTYERMQNIQAEKESLKQCLEIKSASNWQNLCKSKNQILNQ
notes: PflA of C. jejuni 81-176, residues 16-788; only 16-163 (β-sandwich domain and flexible loop) are resolved in the cryo-EM structure; PflA16-788 was cloned both in pET22b (C-terminal 6×His) and in pET26b (C-terminal Strep-tag); also called PflA_(16–163) (the part resolved in the map)
Take B2: the “stoichiometry N” value in experiment [4] came to 1.
